Reference: patent US20100130721A1

B1: fusion protein PG3 (designed binder)
chain: AYRLILNGRTLRGETTTEAVDAATAERVFRQYANDNGVDGEWTYDDATRTFTVTERPEVIDASELTPAVTPGAYRLILNGRTLRGETTTEAVDAATAERVFRQYANDNGVDGEWTYDDATRTFTVTERPEVIDASELTPAVTPGAYRLILNGRTLRGETTTEAVDAATAERVFRQYANDNGVDGEWTYDDATRTFTVTERPEVIDASELTPAVTGGGGCADDDDDDHHHHHH
B2: fusion protein PL2 (designed binder)
chain: ATIRANLIYADGRTQTAEFRGTFEEATAEAYRYADLLPRENGRYTVDVADRGYTLNIRFAPGATIRANLIYADGRTQTAEFRGTFEEATAEAYRYADLLPRENGRYTVDVADRGYTLNIRFAGGGGGCADDDDDDHHHHHH
B3: fusion protein PL3 (designed binder)
chain: ATIRANLIYADGRTQTAEFRGTFEEATAEAYRYADLLPRENGRYTVDVADRGYTLNIRFAPGATIRANLIYADGRTQTAEFRGTFEEATAEAYRYADLLPRENGRYTVDVADRGYTLNIRFAPGATIRANLIYADGRTQTAEFRGTFEEATAEAYRYADLLPRENGRYTVDVADRGYTLNIRFAGGGGGCADDDDDDHHHHHH
B4: fusion protein PL1 (designed binder)
chain: ATIRANLIYADGRTQTAEFRGTFEEATAEAYRYADLLARENGRYTVDVADRGYTLNIRFAGGGGGCADDDDDDHHHHHH
B5: fusion protein PG1 (designed binder)
chain: AYRLILNGRTLRGETTTEAVDAATAERVFRQYANDNGVDGEWTYDDATRTFTVTERPEVIDASELTPAVTGGGGCADDDDDDHHHHHH
B6: fusion protein PG2 (designed binder)
chain: AYRLILNGRTLRGETTTEAVDAATAERVFRQYANDNGVDGEWTYDDATRTFTVTERPEVIDASELTPAVTPGAYRLILNGRTLRGETTTEAVDAATAERVFRQYANDNGVDGEWTYDDATRTFTVTERPEVIDASELTPAVTGGGGCADDDDDDHHHHHH

target: human polyclonal IgG (human); assay: SPR (Biacore), His-tagged fusion protein captured on Ni-NTA chip, human IgG injected

**Q.** Which Kd does the source give for B1 here?
**A.** 0.068 nM

**Q.** And the koff?
**A.** 7.63e-05 s⁻¹

**Q.** What about the kon of the same binder?
**A.** 1.12e+06 M⁻¹ s⁻¹

**Q.** With B2 as the binder, how does the Kd read?
**A.** 1.34 nM

**Q.** And the koff?
**A.** 0.000264 s⁻¹

**Q.** And the kon?
**A.** 246000 M⁻¹ s⁻¹

**Q.** How did the Kd turn out when B3 was run?
**A.** 0.788 nM

**Q.** And the koff?
**A.** 0.000237 s⁻¹

**Q.** And the kon?
**A.** 301000 M⁻¹ s⁻¹

**Q.** For B4, which Kd is on record?
**A.** 2.06 nM

**Q.** What about the koff of the same binder?
**A.** 0.000312 s⁻¹

**Q.** And the kon?
**A.** 151000 M⁻¹ s⁻¹

**Q.** What does the source list for B5?
**A.** Kd: 0.384 nM; koff: 0.000154 s⁻¹; kon: 401000 M⁻¹ s⁻¹

**Q.** B6 was tested. Which Kd did it give?
**A.** 0.115 nM

**Q.** What about the koff of the same binder?
**A.** 0.0001 s⁻¹

**Q.** And the kon?
**A.** 864000 M⁻¹ s⁻¹
